According to publication PMC5299624 (The Journal of General Physiology, 2017):
Positions count from the first letter of the chain named. Names and notes keep the numbering of the source.

B1: human NaV1.2 CTD (1777-1937) H1853R (domain or fragment)
chain: ENFSVATEESAEPLSEDDFEMFYEVWEKFDPDATQFIEFAKLSDFADALDPPLLIAKPNKVQLIAMDLPMVSGDRIRCLDILFAFTKRVLGESGEMDALRIQMEERFMASNPSKVSYEPITTTLKRKQEEVSAIIIQRAYRRYLLKQKVKKVSSIYKKDKG
B2: human NaV1.2 CTD (1777-1937) R1918H (domain or fragment)
chain: B1 chain with R77H, R142H
B3: human NaV1.6 C-terminal domain (CTD), amino acids 1769-1926, wild type (domain or fragment)
chain: FSVATEESADPLSEDDFETFYEIWEKFDPDATQFIEYCKLADFADALEHPLRVPKPNTIELIAMDLPMVSGDRIHCLDILFAFTKRVLGDSGELDILRQQMEERFVASNPSKVSYEPITTTLRRKQEEVSAVVLQRAYRGHLARRGFICKKTTSNKLE

molecular target: calmodulin (CaM) (UniProt P0DP23 1-149); experiment: ITC

Row | Kd [nM] | Binder
1 | 172 | B1
2 | 112 | B2
3 | 276 | B3
